{
  "source": "patent US20250049892A1",
  "about": "“SEMAGLUTIDE SOLUBLE MICRONEEDLE COMPOSITION AND PREPARATION METHOD THEREFOR” (GUANGZHOU NOVAKEN PHARM CO., LTD., priority 2022, published 2025)",
  "origin": "cited, not measured here",
  "conditions": "oral administration of semaglutide (with SNAC)",
  "data": [
    {"substance": "Semaglutide", "values": [
      {"measurement": "bioavailability", "value": "0.9-1.2%"}
    ]}
  ]
}
